{
  "source": "the DeepSol protein solubility set",
  "data": [
    {"assay": "soluble on expression in E. coli; label from the status in PepcDB or PDB records", "values": [
      {"sequence": "MGSDKIHHHHHHNEDDIFDESSAQRAIASVNECQEILKGAANGWLLEYYTGEDGEYGGFNVLARFDGNNVIMAADFATDNYEIGEESTSLYKVESYQGTELSFDSYNELIHEFCEPSGYNSPGYAGDYEFVFRSVSKEKIVLTGKKHGVTLIMTPLPAETNWQEKLTNIANVVSQASYVTYKLIVNGQEITKMGQEEHAFSVTKVDETGETTVSLYPFIYTEEGIKMYEPLVVNGVEINNFKWDNENLTYICTDTGVDAKIEFYCPEGYLNYLGNYILQLANGQRIQLELKQKMIGKSFAMNFALSGTPIEFVYNYNMTTDCIDVPSQTVGVYQGYNVLLYPGIPGGNFYADDSAVFQGRIANTDPLTIKFTYVNNPICTLMLLVYQKTDGWYGFSTMFQDVTLIKVD", "soluble on expression in E. coli": "not soluble"},
      {"sequence": "MKIQLHKWPKSVIDRLDLVFLDAPFPCQGKSDVEGIFDPPYYEWFQFNKEFTEYTNFEKCLEYLEDRMIKLGPFDGLIGFSQGAILSGGLPGLQAKGIAFQKVPKIKFVIIIGGAKLKSAKLAENAYSSSLETLSLHFLGETDFLKPYGTQLIESYKNPVVVHHPKGHTVPRLDEKSLEKVTAFIDTLEHLVMEEDKNGEENTSKPTK", "soluble on expression in E. coli": "soluble"},
      {"sequence": "MAHHHHHHMANSRASTLAAAAAAASTAAVKPLSYVSLRSHDGKHVILPVAAAAGSRVLHGIFQGLYVMRLHQCNSPADQPPHAQHEQYPMVEEDAQQGELHIPRSGSSSSSGSDVANKAHGSAEVKVDDPIPIIEDEDDIEEDEARHQVNGAAYRSYAAVFPSNVACVPPPPSPLLSTSPPAAPSPCVPPLLEVPICSLEFSTLMRVAEFLVVKITLASHPHYLHEANVFGDLDRTSERDQLVAMQVLLGADFLNC", "soluble on expression in E. coli": "not soluble"},
      {"sequence": "MSRKMTGIVKTFDCKSGKGLITPSDGRKDVQVHISACRQHETEALIPGIRVEFCRINGLRGPTAANVYLS", "soluble on expression in E. coli": "not soluble"},
      {"sequence": "MSLICSISNEVPEHPCVSPVSNHVYERRLIEKYIAENGTDPINNQPLSEEQLIDIKVAHPIRPKPPSATSIPAILKALQDEWDAVMLHSFTLRQQLQTTRQELSHALYQHDAACRVIARLTKEVTAAREALATLKPQAGLIVPQAVPSSQPSVVGAGEPMDLGELVGMTPEIIQKLQDKATVLTTERKKRGKTVPEELVKPEELSKYRQVASHVGLHSASIPGILALDLCPSDTNKILTGGADKNVVVFDKSSEQILATLKGHTKKVTSVVFHPSQDLVFSASPDATIRIWSVPNASCVQVVRAHESAVTGLSLHATGDYLLSSSDDQYWAFSDIQTGRVLTKVTDETSGCSLTCAQFHPDGLIFGTGTMDSQIKIWDLKERTNVANFPGHSGPITSIAFSENGYYLATAADDSSVKLWDLRKLKNFKTLQLDNNFEVKSLIFDQSGTYLALGGTDVQIYICKQWTEILHFTEHSGLTTGVAFGHHAKFIASTGMDRSLKFYSL", "soluble on expression in E. coli": "soluble"},
      {"sequence": "MTQIIKIDPLNPEIDKIKIAADVIRNGGTVAFPTETVYGLGANAFDGNACLKIFQAKNRPVDNPLIVHIADFNQLFEVAKDIPDKVLEIAQIVWPGPLTFVLKKTERVPKEVTAGLDTVAVRMPAHPIALQLIRESGVPIAAPSANLATRPSPTKAEDVIVDLNGRVDVIIDGGHTFFGVESTIINVTVEPPVLLRPGPFTIEELKKLFGEIVIPEFAQGKKEAEIALAPGMKYKHYAPNTRLLLVENRNIFKDVVSLLSKKYKVALLIPKELSKEFEGLQQIILGSDENLYEVARNLFDSFRELDKLNVDLGIMIGFPERGIGFAIMNRARKASGFSIIKAISDVYKYVNI", "soluble on expression in E. coli": "soluble"},
      {"sequence": "MNQYLAVTSNGMENLLVEELTKLGIENAKPVQAGVKFKATNEQIYRCCLWSRLASRFVRVLSEFTCNDDMDLYLSTSSINWVNQFHSSKRFVVDFNGTNREIRNSQYGAMKVKDGIVDCFEKKGLPRPNISKERPDIRVHVRLHKDKAILGVDMVGSGLHQRGYRPESGRAPLRETLAAAIIMRCGWDGHQPLLDPMCGSGTLLIEAAMMAANMAPGVKRKQWCFESLEDFEPDTWAEIKSEANVQARRGVKKVDAKFFGFDNDPKVLKVAQENARRAGVEELIEFAQGDVATITRLSGFENGVIVSNPPYGERLGTEPGLIALYTAFGGQLKAEFGGCKASIFSSSDELLSCLRMRADKQFKLNNGALPCHQKNYSIAERSADEVKGADTNTQIAPDFSNRLKKNIGKIGKWARKEKLDCYRIYDADLPEYNVAIDVYGDQIVIQEYAAPKNIPEEKAKRRLTDIIRATIQVTGVEANKVVLKVREKQKGRSQYQK", "soluble on expression in E. coli": "not soluble"},
      {"sequence": "MSLTEEFVNKEDALKNYNAKEFRTPDGYTSDMILTTVKELNGKPTLHILLIKRSLTNAEGKPNMEGGKWAVPGGFVDENESAEQAAERELEEETSLTDIPLIPFGVFDKPGRDPRGWIISRAFYAIVPPEALEKRAAGDDAAEIGLFPMTEALELPLAFDHLDMLKKAFSAITEEFLLTTAIRDFLPETFSAELLYQTLEGCTKPGILPDEVEFMENIEYLPYLEKVGDLYRFNADAEAGSIYFEGHHHHHH", "soluble on expression in E. coli": "soluble"},
      {"sequence": "MPRTHGYAPIGKRCHGKCNWHARGRINVIGALIGKCLLTVGLFKNNIDADTFLGWTIHDLLPKLPPASIVVMDNATFRKRQDIQNVITRGGHTLEYLPAYSPDLNPIEHKWAQTKAVRKQQNQTVEQLFKIESFYVTLEHHHHHH", "soluble on expression in E. coli": "soluble"},
      {"sequence": "MAHHHHHHMSLPRRMCMFATCQSNRKSCSMRQSSVTSEGYRYSSTFAAGRLFDAVYVINLDRRPDRWEFATQQLSRAGFLHEEYVRFPAVDGRNVDLQKAHACGLISRLGLLRLQEPEHRRIWGMDLNPGAVGCALSHALLWAQIAASRHRSVLVVEDDSLFPQDFHHKYEARAKQVPSDWELLYVSGLDTAGQAPQLRVAEGVCRVPQMHRTTNCYVVSHRGARLLLDACFPVTYQLDTMMTLRTAGDGAGGVPYVTVPNCYTLQPPLVVQATRMGSDIQSASGGVCDRDEVEEERARCRAAGWEVQETGTLVP", "soluble on expression in E. coli": "not soluble"},
      {"sequence": "MNRLERIIQLVSQKKKIDVNSLSEQLDVSKVTIRKDLDKLESKGLLRREHGYAVLNSGDDLNVRLSYNYNIKRRIAEKAAELVQDNDTIMIESGSTCALLAEVLCQTKRNIKVITNSCFIANYIRQYSSCQIILLGGYYQPNSEVTVGPLLKEMISLFHVNRVFVGTDGFNKDLGFMGKDMMRSEGVRYMADAAEEVVILTDSSKFSKTSLVHQLSLADVNRVITDQALDKQTQELLSASGLVLDFVSLEHHHHHH", "soluble on expression in E. coli": "not soluble"},
      {"sequence": "MAHHHHHHMNRSSSTSVNKDNVLQLTYYEIFSLDEVAESIDLQALHRAYRRFALLFHPDKDASPEAREAFLRVKLAAETLSDPIKRQEYNEQLRREAHEQREVKEQQRECGVGEEAIMAEMILRQKEAESLAKSAAANKEAAEREAAAKKMINELTNALTTPFKQMETALVSEWDIDEGLLDMKVNEIRLLLQKLHNLSCHREGRKGGGGAMGFSSGSEALPTAVKRTREESGVNITA", "soluble on expression in E. coli": "not soluble"},
      {"sequence": "MGSSHHHHHHSSGLVPRGSHVHNKVTIIGSGPAAHTAAIYLARAEIKPILYEGMMANGIAAGGQLTTTTEIENFPGFPDGLTGSELMDRMREQSTKFGTEIITETVSKVDLSSKPFKLWTEFNEDAEPVTTDAIILATGASAKRMHLPGEETYWQKGISACAVCDGAVPIFRNKPLAVIGGGDSACEEAQFLTKYGSKVFMLVRKDHLRASTIMQKRAEKNEKIEILYNTVALEAKGDGKLLNALRIKNTKKNEETDLPVSGLFYAIGHTPATKIVAGQVDTDEAGYIKTVPGSSLTSVPGFFAAGDVQDSKYRQAITSAGSGCMAALDAEKYLTSLE", "soluble on expression in E. coli": "soluble"},
      {"sequence": "MSLALIVQKFGGTSVGTVERIEQVAEKVKKFREAGDDVVVVVSAMSGETNRLIGLANQIMEQPVPRELDVMVSTGEQVTIALLSMALIKRGVPAVSYTGNQVRILTDSAHTKARILHIDDTHIRADLKAGRVVVVAGFQGVDGNGNITTLGRGGSDTTGVALAAALKADECQIYTDVDGVYTTDPRVVPQARRLDKITFEEMLEMASLGSKVLQIRAVEFAGKYNVPLRVLHSFQEGPGTLITIDDEEESMEQPIISGIAFNRDEAKLTIRGVPDTPGVAFKILGPISAANVEVDMIVQNVAHDNTTDFTFTVHRNDYLNALEILKQTAANIGAREAIGDTNIAKVSIVGVGMRSHAGVASRMFEALAKESINIQMISTSEIKVSVVIEEKYLELAVRALHTAFELDAPARQGEEGHHHHHH", "soluble on expression in E. coli": "soluble"},
      {"sequence": "MGSDKIHHHHHHMMDKEIENGSVNVDLLELEKFNQLAHRWWDPNSEFKPLHEINPLRLGYIDRHARLAGKDVLDVGCGGGILSESMAESGAQVTGIDLGDKALKVAKLHLLESGNKVNYRKSSVEALAAEQPHHYDVVTCMEMLEHVPDPVSTVRACAELAKPGGWVFFSTINRNPKSYLFAVIGAEYVLNLLPRGTHDYAKFIKPSELGRMAREAGLDVQEVIGMSYNPITKVYSLGQDTDVNYIMAFRA", "soluble on expression in E. coli": "not soluble"},
      {"sequence": "MGSDKIHHHHHHMLRLSALGDVCNLVPTIRVLQRLWPDARITWIIGKGEHSLLAGLSGVEFIVYDKATGLAGMREVWRQLGDTRFDVLLHMQQALRASVLSLGLKADLRIGYDKARAKDWQHWFTHRQLTPHPRAHVLDSFLDFARLLGGAERVDAEPLRWDLAIPDTAYQEAARVTGDAPYIVISPCANPRLRNFRNWSAEGYAAVISHAWQEHGLRTVMTGGGSTQEQEMGARIRALCAEEAVIDAIGATSLKGLLAMLDRARMVIAPDSGPVHMANALRTPTLGLYATTNPERAAPYCWRDFVVDRYPDAVRRYLHKSPEAITWGARVRHPDAMSLIHADDVIAQFDALLNAAPSASSRPEPDHET", "soluble on expression in E. coli": "not soluble"},
      {"sequence": "MSLISVIMPVYNCEKYLEESIESILKQTYRDFEFIIVNDGSNDKSIDIINKYANDDNRIVVVSRDNNMGMVYSLNEGIDRAKGSYVARMDADDIALPERFERQIEYLNKNKDVDILACKVEAFGDVSREQKLEREHWYNVDLNNSESIESLFLENCYIAHPSVMMKMSVLKALGGYNLNYKRTEDYNLWLRAIAKGYKIAMLEEKLMKIRLHNDSKIHRDAEGFSSIRDIIQSRLEYVKEKLKLKDFSYVIWGASNGGKIAYEKIKEVFPNAKLNGYIDKFKTGKFEGVDIFYPEDLSKMKVDYVFIATLPGCKEAKGILTKNNFVPIKDFLVLCEGHHHHHH", "soluble on expression in E. coli": "soluble"},
      {"sequence": "DFVGGTKMNMPAAQLETSEVADTFKDATGIEPELVQIVGSGDTRILEINSERLSEDQISQARVALFEKYQPVGSQGQPTPDAIGDSTVSESWGSTITQR", "soluble on expression in E. coli": "not soluble"},
      {"sequence": "MSLSDNVDVDVLSLVQNDALEESVAINSMISKARANFSGSLLQFQTRVSSVYGETNEENAVNPLDPEHICKAFSDACIGLDIEIKEKLIVYKQFDRYVMGNLVECLEEANKIMIQAGVMPNLKYTAKKSRVTPRSTSDVSARPLEAQSDANGYDGAGDVFSQVQELLSALRNTASNPEQQQGDPNTGAGGRQAPPPGNVQFIADADLLSILSRLQHSVRTENLAEGPVVALDLRTAVQGLLSEESQKSGKATALDQIDEDLINLVSMLFEFILDDYNLSAPIQVLISRLQIPILKVAIRDKSFFSKPSHPARKLLNALAKAGIGWSDASEKKRDKLYEQIHRAVQRILEEFNGESELFEEIYQEFSQYLSREERKAKLVEQRTKEAEIGRVKSHKAHQVVEQILSEKIAAQPLPPVAVELLRGGWSRVMFLAYLKEDTEHRLNQCTKVVDELTWCLQPHAEVEARQRWVKVVPQLLKNLKAGLKEVSYNSAKLEHMLGELKKALTETFKQQSITSEGHHHHHH", "soluble on expression in E. coli": "not soluble"},
      {"sequence": "MAHHHHHHMGTLEAQTQGPGSMDEVLLVKKLVEDAIVPTRGSKCAAGIDLYSNTNFIIQPHERFLVSTGVSVQIPHQCYGRIAPRSSLALKYGIDVGAGVIDEDYRGEIKVILFNHSNEIFNGRKGDRIAQLIIERISYCRISEVKELNTTDRGTNGFGSTGK", "soluble on expression in E. coli": "soluble"}
    ]}
  ]
}
